These are literature values, as cited in article PMC2792886.

For this data set, the target named is holoBirA (Escherichia coli) (UniProt P06709).

As for holoBirA (from UniProt P06709), the Kd (in general, the constant that tells how readily two partners part at equilibrium) is 10 µM.
